From patent US20150098941A1 (Chugai, published 2015)

These binders were tested against T1, fused protein GST-GPC3 (GST and human glypican-3 peptide of SEQ ID NO: 16) (human, UniProt P51654 524-563) (assay: SPR (BIACORE 3000), CHO culture supernatant over immobilized GST-GPC3).
T1 construct: It was immobilized on a BIACORE chip; also called GPC3 peptide; not shown: GST (glutathione S-transferase)
Experimental: This was introduced into 2×10⁶/0.6 ml PBS(−) of CHO cells (strain DXB11S) according to an electroporation method under a condition of 1.5 kV and 25 uF. The cells were incubated in a 8% CO₂ incubator at 37° C. The cells were screened in CHO-S-SFMII medium (Invitrogen) containing 400 μg/ml of geneticin. Selected cells were inoculated into a CHO-S-SFMII medium containing 400 μg/ml geneticin in a 96-well plate at 0.4 cells/100 μl/well, and the cells were cloned according to a limiting dilution method. The culture supernatant was analyzed with BIACORE 3000. The antigen was quantified using a chip with fused protein GST-GPC3 (antigen GST and human glypican-3 shown by SEQ ID NO:16) immobilized thereon, and high-expression cells were selected.

T1 sequence (P51654 524-563 limits assumed): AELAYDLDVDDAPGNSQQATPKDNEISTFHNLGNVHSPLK

Binder | binding result
Fc-modified humanized anti-GPC3 antibody V209 (S239D/A330L/I332E) (antibody, human IgG1, G1m(1) allotype) heavy: QVQLVQSGAEVKKPGASVKVSCKASGYTFTDYEMHWVRQAPGQGLEWMGALDPKTGDTAYSQKFKGRVTLTADKSTSTAYMELSSLTSEDTAVYYCTRFYSYTYWGQGTLVTVSSASTKGPSVFPLAPSSKSTSGGTAALGCLVKDYFPEPVTVSWNSGALTSGVHTFPAVLQSSGLYSLSSVVTVPSSSLGTQTYICNVNHKPSNTKVDKKVEPKSCDKTHTCPPCPAPELLGGPDVFLFPPKPKDTLMISRTPEVTCVVVDVSHEDPEVKFNWYVDGVEVHNAKTKPREEQYNSTYRVVSVLTVLHQDWLNGKEYKCKVSNKALPLPEEKTISKAKGQPREPQVYTLPPSRDELTKNQVSLTCLVKGFYPSDIAVEWESNGQPENNYKTTPPVLDSDGSFFLYSKLTVDKSRWQQGNVFSCSVMHEALHNHYTQKSLSLSPGK VL: DVVMTQSPLSLPVTPGEPASISCRSSQSLVHSNGNTYLHWYLQKPGQSPQLLIYKVSNRFSGVPDRFSGSGSGTDFTLKISRVEAEDVGVYYCSQNTHVPPTFGQGTKLEIK | binds
Fc-modified humanized anti-GPC3 antibody V209 nG1m(1) allotype (S239D/A330L/I332E/D356E/L358M) (antibody, human IgG1, name in EU numbering) heavy: QVQLVQSGAEVKKPGASVKVSCKASGYTFTDYEMHWVRQAPGQGLEWMGALDPKTGDTAYSQKFKGRVTLTADKSTSTAYMELSSLTSEDTAVYYCTRFYSYTYWGQGTLVTVSSASTKGPSVFPLAPSSKSTSGGTAALGCLVKDYFPEPVTVSWNSGALTSGVHTFPAVLQSSGLYSLSSVVTVPSSSLGTQTYICNVNHKPSNTKVDKKVEPKSCDKTHTCPPCPAPELLGGPDVFLFPPKPKDTLMISRTPEVTCVVVDVSHEDPEVKFNWYVDGVEVHNAKTKPREEQYNSTYRVVSVLTVLHQDWLNGKEYKCKVSNKALPLPEEKTISKAKGQPREPQVYTLPPSREEMTKNQVSLTCLVKGFYPSDIAVEWESNGQPENNYKTTPPVLDSDGSFFLYSKLTVDKSRWQQGNVFSCSVMHEALHNHYTQKSLSLSPGK VL: DVVMTQSPLSLPVTPGEPASISCRSSQSLVHSNGNTYLHWYLQKPGQSPQLLIYKVSNRFSGVPDRFSGSGSGTDFTLKISRVEAEDVGVYYCSQNTHVPPTFGQGTKLEIK | binds
Fc-modified humanized anti-GPC3 antibody V212 (S239D/S298A/I332E) (antibody, human IgG1, also called pC-aGPChl (212)) heavy: QVQLVQSGAEVKKPGASVKVSCKASGYTFTDYEMHWVRQAPGQGLEWMGALDPKTGDTAYSQKFKGRVTLTADKSTSTAYMELSSLTSEDTAVYYCTRFYSYTYWGQGTLVTVSSASTKGPSVFPLAPSSKSTSGGTAALGCLVKDYFPEPVTVSWNSGALTSGVHTFPAVLQSSGLYSLSSVVTVPSSSLGTQTYICNVNHKPSNTKVDKKVEPKSCDKTHTCPPCPAPELLGGPDVFLFPPKPKDTLMISRTPEVTCVVVDVSHEDPEVKFNWYVDGVEVHNAKTKPREEQYNATYRVVSVLTVLHQDWLNGKEYKCKVSNKALPAPEEKTISKAKGQPREPQVYTLPPSRDELTKNQVSLTCLVKGFYPSDIAVEWESNGQPENNYKTTPPVLDSDGSFFLYSKLTVDKSRWQQGNVFSCSVMHEALHNHYTQKSLSLSPGK VL: DVVMTQSPLSLPVTPGEPASISCRSSQSLVHSNGNTYLHWYLQKPGQSPQLLIYKVSNRFSGVPDRFSGSGSGTDFTLKISRVEAEDVGVYYCSQNTHVPPTFGQGTKLEIK | binds

More lines, now with the values ahead:

binding result | Binder
binds | Fc-modified humanized anti-GPC3 antibody V922 (S239D/K326T/I332E) (antibody, human IgG1) heavy: QVQLVQSGAEVKKPGASVKVSCKASGYTFTDYEMHWVRQAPGQGLEWMGALDPKTGDTAYSQKFKGRVTLTADKSTSTAYMELSSLTSEDTAVYYCTRFYSYTYWGQGTLVTVSSASTKGPSVFPLAPSSKSTSGGTAALGCLVKDYFPEPVTVSWNSGALTSGVHTFPAVLQSSGLYSLSSVVTVPSSSLGTQTYICNVNHKPSNTKVDKKVEPKSCDKTHTCPPCPAPELLGGPDVFLFPPKPKDTLMISRTPEVTCVVVDVSHEDPEVKFNWYVDGVEVHNAKTKPREEQYNSTYRVVSVLTVLHQDWLNGKEYKCKVSNTALPAPEEKTISKAKGQPREPQVYTLPPSRDELTKNQVSLTCLVKGFYPSDIAVEWESNGQPENNYKTTPPVLDSDGSFFLYSKLTVDKSRWQQGNVFSCSVMHEALHNHYTQKSLSLSPGK VL: DVVMTQSPLSLPVTPGEPASISCRSSQSLVHSNGNTYLHWYLQKPGQSPQLLIYKVSNRFSGVPDRFSGSGSGTDFTLKISRVEAEDVGVYYCSQNTHVPPTFGQGTKLEIK
binds | Fc-modified humanized anti-GPC3 antibody V22 (I332E) (antibody, also called pC-aGPChl (22)) heavy: not shown VL: DVVMTQSPLSLPVTPGEPASISCRSSQSLVHSNGNTYLHWYLQKPGQSPQLLIYKVSNRFSGVPDRFSGSGSGTDFTLKISRVEAEDVGVYYCSQNTHVPPTFGQGTKLEIK
